Laboratory results: IntAct's records for PubMed 29039417

B1: Protein PTHB1 (Homo sapiens), Q3SYG4 (parent)
chain: MSLFKARDWWSTILGDKEEFDQGCLCLANVDNSGNGQDKIIVGSFMGYLRIFSPHPAKTGDGAQAEDLLLEVDLRDPVLQVEVGKFVSGTEMLHLAVLHSRKLCVYSVSGTLGNVEHGNQCQMKLMYEHNLQRTACNMTYGSFGGVKGRDLICIQSMDGMLMVFEQESYAFGRFLPGFLLPGPLAYSSRTDSFLTVSSCQQVESYKYQVLAFATDADKRQETEQQKLGSGKRLVVDWTLNIGEQALDICIVSFNQSASSVFVLGERNFFCLKDNGQIRFMKKLDWSPSCFLPYCSVSEGTINTLIGNHNNMLHIYQDVTLKWATQLPHIPVAVRVGCLHDLKGVIVTLSDDGHLQCSYLGTDPSLFQAPNVQSRELNYDELDVEMKELQKIIKDVNKSQGVWPMTEREDDLNVSVVVSPNFDSVSQATDVEVGTDLVPSVTVKVTLQNRVILQKAKLSVYVQPPLELTCDQFTFEFMTPDLTRTVSFSVYLKRSYTPSELEGNAVVSYSRPTDRNPDGIPRVIQCKFRLPLKLICLPGQPSKTASHKITIDTNKSPVSLLSLFPGFASQSDDDQVNVMGFHFLGGARITVLASKTSQRYRIQSEQFEDLWLITNELILRLQEYFEKQGVKDFACSFSGSIPLQEYFELIDHHFELRINGEKLEELLSERAVQFRAIQRRLLARFKDKTPAPLQHLDTLLDGTYKQVIALADAVEENQGNLFQSFTRLKSATHLVILLIALWQKLSADQVAILEAAFLPLQEDTQELGWEETVDAAISHLLKTCLSKSSKEQALNLNSQLNIPKDTSQLKKHITLLCDRLSKGGRLCLSTDAAAPQTMVMPGGCTTIPESDLEERSVEQDSTELFTNHRHLTAETPRPEVSPLQGVSE
partner: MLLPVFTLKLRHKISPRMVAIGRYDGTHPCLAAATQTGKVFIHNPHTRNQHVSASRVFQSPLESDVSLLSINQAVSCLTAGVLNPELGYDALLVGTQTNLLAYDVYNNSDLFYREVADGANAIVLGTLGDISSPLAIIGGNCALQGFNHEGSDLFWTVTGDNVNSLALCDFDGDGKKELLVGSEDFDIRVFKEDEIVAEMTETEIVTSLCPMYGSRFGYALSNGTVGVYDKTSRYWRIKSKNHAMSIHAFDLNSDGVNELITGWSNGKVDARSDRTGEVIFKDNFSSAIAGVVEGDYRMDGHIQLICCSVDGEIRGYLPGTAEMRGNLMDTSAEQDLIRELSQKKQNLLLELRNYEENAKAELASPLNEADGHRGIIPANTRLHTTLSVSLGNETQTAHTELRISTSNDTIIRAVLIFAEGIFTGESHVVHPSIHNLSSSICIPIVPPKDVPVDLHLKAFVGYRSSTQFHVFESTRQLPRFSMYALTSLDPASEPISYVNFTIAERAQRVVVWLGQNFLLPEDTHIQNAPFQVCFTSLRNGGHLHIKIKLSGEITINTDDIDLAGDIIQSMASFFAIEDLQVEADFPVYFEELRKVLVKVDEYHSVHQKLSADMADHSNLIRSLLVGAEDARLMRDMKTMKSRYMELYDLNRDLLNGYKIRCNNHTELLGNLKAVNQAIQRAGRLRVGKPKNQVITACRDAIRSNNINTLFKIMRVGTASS

Variants of: B1
Settings: with bbs2_human BBS2, Q9BXC9

Row | effect of a mutation on the interaction | Variant
1 | with no effect | K492E
2 | with no effect | A567K
3 | with no effect | A567E
4 | with no effect | S425E
5 | with no effect | V424E
6 | disrupting interaction strength | R674P
7 | disrupting interaction strength | T478I
8 | with no effect | S820A
9 | with no effect | S507K
10 | with no effect | G628K
11 | with no effect | T874A
12 | with no effect | Q574E
13 | with no effect | M837E
14 | with no effect | I519A
15 | with no effect | V417E
16 | with no effect | Q597E
17 | with no effect | Q597K
18 | with no effect | V879E
19 | with no effect | L529E
20 | with no effect | N448K
21 | with no effect | L642K
22 | with no effect | Q471E
23 | disrupting interaction strength | M839K

Row | effect of a mutation on the interaction | Variant
24 | with no effect | S603K
25 | with no effect | V629K
26 | with no effect | T473E
27 | with no effect | V706E
28 | with no effect | K743E
29 | with no effect | L680K
30 | with no effect | N553E
31 | with no effect | F472E
32 | with no effect | L744K
33 | disrupting interaction strength | L744F
34 | with no effect | M477A
35 | with no effect | L759E
36 | with no effect | I601A
37 | with no effect | D409K
38 | with no effect | A708E
39 | with no effect | I776K
40 | with no effect | L695A
41 | with no effect | D747A
42 | with no effect | T697A
43 | with no effect | G718A
44 | with no effect | L662E
45 | with no effect | L740E
46 | with no effect | T829K

Row | effect of a mutation on the interaction | Variant
47 | disrupting interaction strength | P847T
48 | with no effect | I612A
49 | with no effect | L591E
50 | with no effect | E660K
51 | with no effect | G565K
52 | with no effect | V505E
53 | disrupting interaction strength | P689S
54 | with no effect | K630A
55 | with no effect | L562A
56 | with no effect | S494K
57 | with no effect | N794E
58 | with no effect | P479K
59 | with no effect | F636K
60 | with no effect | E852A
61 | with no effect | P497K
62 | with no effect | T771A
63 | with no effect | L533K
64 | with no effect | F624K
65 | with no effect | T595A
66 | disrupting interaction strength | T595S
67 | with no effect | T595K
68 | with no effect | T445A
69 | with no effect | P419A

Row | effect of a mutation on the interaction | Variant
70 | disrupting interaction strength | P556Q
71 | with no effect | K554E
72 | with no effect | Q748E
73 | with no effect | T813A
74 | with no effect | L793E
75 | with no effect | K661E
76 | with no effect | T434A
77 | with no effect | T434K
78 | with no effect | V459K
79 | with no effect | V413E
80 | with no effect | Y495A
81 | with no effect | I534K
82 | with no effect | V772K
83 | with no effect | V444E
84 | with no effect | G884E
85 | with no effect | D711K
86 | with no effect | L648E
87 | with no effect | T552A
88 | with no effect | Q693E
89 | with no effect | N658E
90 | with no effect | K532E

Second part, the variant before the results:

Row | Variant | effect of a mutation on the interaction
91 | D470A | with no effect
92 | E857K | with no effect
93 | Q672E | with no effect
94 | G585K | with no effect
95 | V437A | with no effect
96 | V450E | with no effect
97 | N614E | with no effect
98 | H581K | with no effect
99 | V879K | with no effect
100 | N448A | with no effect
101 | N448E | with no effect
102 | V432K | with no effect
103 | L642E | with no effect
104 | D480K | with no effect
105 | A504K | with no effect
106 | W741L | disrupting interaction strength
107 | P464K | with no effect
108 | L709K | with no effect
109 | L709E | with no effect
110 | Y703K | with no effect
111 | V706K | with no effect
112 | E715K | with no effect
113 | V430K | with no effect

Row | Variant | effect of a mutation on the interaction
114 | N412A | with no effect
115 | N412E | with no effect
116 | S729K | with no effect
117 | A670E | with no effect
118 | A670K | with no effect
119 | P540E | with no effect
120 | S860K | with no effect
121 | T845K | with no effect
122 | L784A | with no effect
123 | T589S | disrupting interaction strength
124 | F582E | with no effect
125 | V442K | with no effect
126 | L863E | with no effect
127 | L744A | with no effect
128 | P641A | with no effect
129 | M477K | with no effect
130 | N716A | disrupting interaction strength
131 | R483K | with no effect
132 | F476A | with no effect
133 | Q426A | with no effect
134 | Q447K | with no effect
135 | G822K | with no effect
136 | V734A | with no effect

Row | Variant | effect of a mutation on the interaction
137 | I676E | with no effect
138 | P881K | with no effect
139 | P438A | with no effect
140 | H778A | with no effect
141 | H694A | with no effect
142 | N420K | with no effect
143 | P689K | with no effect
144 | V557A | with no effect
145 | F756K | with no effect
146 | L799E | with no effect
147 | S418A | with no effect
148 | D817K | with no effect
149 | Q677E | with no effect
150 | R587T | disrupting interaction strength
151 | V749E | with no effect
152 | G823K | with no effect
153 | T428E | with no effect
154 | P875E | with no effect
155 | L665K | with no effect
156 | L481K | with no effect
157 | S849K | with no effect
158 | L851K | with no effect
159 | F421K | with no effect

Row | Variant | effect of a mutation on the interaction
160 | I812K | with no effect
161 | A832K | with no effect
162 | E769A | with no effect
163 | H732E | with no effect
164 | L616K | with no effect
165 | L793A | with no effect
166 | I451K | with no effect
167 | S568E | with no effect
168 | I548E | with no effect
169 | L583K | with no effect
170 | V489K | with no effect
171 | V590A | with no effect
172 | G884A | with no effect
173 | Q605E | with no effect
174 | T496A | with no effect
175 | D711A | with no effect
176 | L648K | with no effect
177 | T552K | with no effect
178 | S558A | with no effect
179 | I523A | with no effect
180 | R598L | disrupting interaction strength
181 | Q602L | disrupting interaction strength
